In US20260265385A1 (ANAPTYSBIO, published 2026):
Numbering of substitutions follows the chain as printed. Each block holds one binder with its values, some of them ahead of it.

Columns and labels:
[1] = biological target: T1, recombinant human IL-2Rβ (extracellular domain, Ala1-Thr215) (human, UniProt P14784 27-240); assay: SPR, antibody captured on Protein A chip
T1 construct: extracellular domain; Analyte in SPR; Ala1-Thr215 is counted on the mature protein; also called human LL-2Rβ; Human IL-2RB
T1 sequence (looked up): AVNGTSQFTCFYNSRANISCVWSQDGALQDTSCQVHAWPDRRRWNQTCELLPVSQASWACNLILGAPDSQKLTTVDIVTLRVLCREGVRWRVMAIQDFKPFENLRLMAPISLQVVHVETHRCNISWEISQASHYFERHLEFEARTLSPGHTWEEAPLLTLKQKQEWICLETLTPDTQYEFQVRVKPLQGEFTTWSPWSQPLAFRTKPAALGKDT
Method: (§1) Surface plasmon resonance (SPR) was used to determine the binding affinities. The M6-1625 and M10-1275 antibodies were captured onto a Cytiva Protein A Chip for 60 seconds at 0.5 μg/mL for 60 seconds. The antibodies were exposed to recombinant human LL-2Rβ or cynomolgus LL-2Rβ (corresponding to residues Ala1-Thr215 of the extracellular domains excluding the signal peptide) at typical concentrations ranging from 0.4 nM to 11 nM with typical 300 second associations and 1200 second dissociations using a BiacoreS200 instrument. Sensorgrams were fit globally using a 1:1 binding model in the Biacore T200 Evaluation Software to calculate on- and off-rates and KD values.

[2] = biological target: T2, recombinant cynomolgus IL-2Rβ (extracellular domain, Ala1-Thr215) (cynomolgus, UniProt Q38J85 27-240); assay: SPR, antibody captured on Protein A chip
T2 construct: extracellular domain; Analyte in SPR; also called cynomolgus LL-2Rβ; Cyno IL-2RB
T2 sequence (looked up): T1 sequence (looked up) with Q7R, A66T, T74A, L83M, V92M, E127K, L158M
Method: as §1

B1: APE14946 (antibody, V domains shown)
VH: QVQLVQSGAEVKKPGASVKVSCKASGYTFSRYWIEWVRQAPGQGLEWMGEILPGSGSINHNEKFQGRVTFTADTSTSTVYMELSSLRSEDTAVYFCTRHYGSFDYWGQGTTVTVSS
VL: DIQMTQSPSSLSASVGDRVTITCKASQNVGTDVAWYQQKPGKAPKSLIYSASYRYSGVPSRFSGSGSGTDFTLTISSLQPEDFATYFCHQYSSYPFTFGQGTKLEIKR
notes: M6-p1625 series
Kd [1]: 0.357 nM | Kd [2]: 0.255 nM

B7: APE15087 (antibody, V domains shown)
VH: B1 VH with F70M, A72R, F95Y
VL: B1 VL with D32E
notes: M6-p1625 series
Kd [1]: 4.31 nM | Kd [2]: 3.56 nM

B8: APE15091 (antibody, V domains shown)
VH: B1 VH with E35N, F70M, A72R, F95Y
VL: B1 VL
notes: M6-p1625 series
Kd [2]: 0.345 nM

B9: APE15085 (antibody, V domains shown)
VH: B1 VH with F70M, A72R, F95Y
VL: B1 VL with S92E
notes: M6-p1625 series
Kd [1]: 0.158 nM | Kd [2]: 0.154 nM

B11: APE14950 (antibody, V domains shown)
VH: B1 VH with F70M, A72R, F95Y
VL: B1 VL
notes: M6-p1625 series
Kd [1]: 0.252 nM | Kd [2]: 0.192 nM

B12: APE15086 (antibody, V domains shown)
VH: B1 VH with F70M, A72R, F95Y
VL: B1 VL with H89Q
notes: M6-p1625 series
Kd [1]: 0.305 nM | Kd [2]: 0.25 nM

B15: APE14948 (antibody, V domains shown)
VH: B1 VH with F95Y
VL: B1 VL
notes: M6-p1625 series
Kd [1]: 0.358 nM | Kd [2]: 0.266 nM

B16: APE15093 (antibody, V domains shown)
VH: B1 VH with S30T, F70M, A72R, F95Y
VL: B1 VL
notes: M6-p1625 series
Kd [2]: 0.189 nM

B21: APE14949 (antibody, V domains shown)
VH: B1 VH with F95Y
VL: B1 VL with Y36F, S56N, F87Y
notes: M6-p1625 series
Kd [1]: 1.5 nM | Kd [2]: 1 nM

B24: APE15092 (antibody, V domains shown)
VH: B1 VH with E35Q, F70M, A72R, F95Y
VL: B1 VL
notes: M6-p1625 series
Kd [2]: 0.126 nM

B29: APE14951 (antibody, V domains shown)
VH: B1 VH with F70M, A72R, F95Y
VL: B1 VL with Y36F, S56N, F87Y
notes: M6-p1625 series
Kd [1]: 0.804 nM | Kd [2]: 0.584 nM

B30: APE15277 (antibody, V domains shown)
VH: B1 VH with S30I, R31S, E35Q, F70M, A72R, F95Y
VL: B1 VL with S92E
notes: M6-p1625 series
Kd [1]: 0.229 nM | Kd [2]: 0.244 nM

B33: APE14947 (antibody, V domains shown)
VH: B1 VH
VL: B1 VL with Y36F, S56N, F87Y
notes: M6-p1625 series
Kd [1]: 1.46 nM | Kd [2]: 0.977 nM

B34: APE15090 (antibody, V domains shown)
VH: B1 VH with N59D, F70M, A72R, F95Y
VL: B1 VL
notes: M6-p1625 series
Kd [1]: 0.657 nM | Kd [2]: 0.44 nM

B35: APE15088 (antibody, V domains shown)
VH: B1 VH with F70M, A72R, F95Y
VL: B1 VL with D32N
notes: M6-p1625 series
Kd [1]: 16.4 nM | Kd [2]: 16.7 nM

B37: APE15089 (antibody, V domains shown)
VH: B1 VH with F70M, A72R, F95Y
VL: B1 VL with G30D
notes: M6-p1625 series
Kd [1]: 1.04 nM | Kd [2]: 9.39 nM

Second part, the binder after the results:

Kd [1]: 0.0873 nM | Kd [2]: 0.104 nM
B2: APE15286 (antibody, V domains shown)
VH: B1 VH with T28L, E35Q, F70M, A72R, F95Y
VL: B1 VL with S92E
notes: M6-p1625 series

Kd [1]: 0.169 nM | Kd [2]: 0.186 nM
B3: APE15287 (antibody, V domains shown)
VH: B1 VH with T28K, E35Q, F70M, A72R, F95Y
VL: B1 VL with S92E
notes: M6-p1625 series

Kd [1]: 0.157 nM | Kd [2]: 0.153 nM
B4: APE15297 (antibody, V domains shown)
VH: B1 VH with T28S, S30I, R31I, Y32H, E35Q, F70M, A72R, F95Y
VL: B1 VL with S92E
notes: M6-p1625 series

Kd [1]: 0.161 nM | Kd [2]: 0.202 nM
B5: APE15280 (antibody, V domains shown)
VH: B1 VH with Y32Q, F70M, A72R, F95Y
VL: B1 VL with S92E
notes: M6-p1625 series

Kd [1]: 0.334 nM | Kd [2]: 0.488 nM
B6: APE15278 (antibody, V domains shown)
VH: B1 VH with L52S, S55V, G56D, S57T, F70M, A72R, F95Y
VL: B1 VL with S92E
notes: M6-p1625 series

Kd [1]: 0.351 nM | Kd [2]: 0.359 nM
B10: APE15293 (antibody, V domains shown)
VH: B1 VH with R31S, Y32H, E35Q, F70M, A72R, F95Y
VL: B1 VL with S92E
notes: M6-p1625 series

Kd [1]: 0.172 nM | Kd [2]: 0.199 nM
B13: APE15288 (antibody, V domains shown)
VH: B1 VH with T28S, S30R, Y32H, E35Q, F70M, A72R, F95Y
VL: B1 VL with S92E
notes: M6-p1625 series

Kd [1]: 0.0917 nM | Kd [2]: 0.0821 nM
B14: APE15371 (antibody, V domains shown)
VH: B1 VH with V18I, E35Q, F70M, A72R, F95Y
VL: B1 VL with S92E
notes: M6-p1625 series

Kd [1]: 0.851 nM | Kd [2]: 0.825 nM
B17: APE15296 (antibody, V domains shown)
VH: B1 VH with T28R, R31T, Y32Q, F70M, A72R, F95Y
VL: B1 VL with S92E
notes: M6-p1625 series

Kd [1]: 1.98 nM | Kd [2]: 2.68 nM
B18: APE15291 (antibody, V domains shown)
VH: B1 VH with S30A, Y32H, E35G, F70M, A72R, F95Y
VL: B1 VL with S92E
notes: M6-p1625 series

Kd [1]: 0.0981 nM | Kd [2]: 0.132 nM
B19: APE15298 (antibody, V domains shown)
VH: B1 VH with T28I, E35Q, G56V, F70M, A72R, F95Y
VL: B1 VL with S92E
notes: M6-p1625 series

Kd [1]: 1.41 nM | Kd [2]: 1.16 nM
B20: APE15300 (antibody, V domains shown)
VH: B1 VH with T28A, S30V, R31D, Y32N, E35Q, F70M, A72R, F95Y
VL: B1 VL with S92E
notes: M6-p1625 series

Kd [1]: 0.376 nM | Kd [2]: 0.437 nM
B22: APE15292 (antibody, V domains shown)
VH: B1 VH with S30I, R31T, F70M, A72R, F95Y
VL: B1 VL with S92E
notes: M6-p1625 series

Kd [1]: 0.312 nM | Kd [2]: 0.318 nM
B23: APE15283 (antibody, V domains shown)
VH: B1 VH with T28K, R31S, E35Q, F70M, A72R, F95Y
VL: B1 VL with S92E
notes: M6-p1625 series

Kd [1]: 0.0566 nM | Kd [2]: 0.0705 nM
B25: APE15284 (antibody, V domains shown)
VH: B1 VH with S30G, E35Q, F70M, A72R, F95Y
VL: B1 VL with S92E
notes: M6-p1625 series

Kd [1]: 0.31 nM | Kd [2]: 0.327 nM
B26: APE15285 (antibody, V domains shown)
VH: B1 VH with T28I, S30A, R31S, Y32N, E35Q, F70M, A72R, F95Y
VL: B1 VL with S92E
notes: M6-p1625 series

Kd [1]: 0.522 nM | Kd [2]: 0.533 nM
B27: APE15279 (antibody, V domains shown)
VH: B1 VH with S30T, R31S, Y32Q, F70M, A72R, F95Y
VL: B1 VL with S92E
notes: M6-p1625 series

Kd [1]: 0.0867 nM | Kd [2]: 0.0783 nM
B28: APE15368 (antibody, V domains shown)
VH: B1 VH with A24V, S30T, Y32F, E35Q, F70M, A72R, F95Y
VL: B1 VL with S92E
notes: M6-p1625 series

Kd [1]: 0.261 nM | Kd [2]: 0.305 nM
B31: APE15290 (antibody, V domains shown)
VH: B1 VH with T28P, S30T, R31S, E35Q, F70M, A72R, F95Y
VL: B1 VL with S92E
notes: M6-p1625 series

Kd [1]: 0.0674 nM | Kd [2]: 0.0634 nM
B32: APE15369 (antibody, V domains shown)
VH: B1 VH with V18I, S30T, Y32F, E35Q, F70M, A72R, F95Y
VL: B1 VL with S92E
notes: M6-p1625 series

Kd [1]: 0.11 nM | Kd [2]: 0.0982 nM
B36: APE15370 (antibody, V domains shown)
VH: B1 VH with A24V, E35Q, F70M, A72R, F95Y
VL: B1 VL with S92E
notes: M6-p1625 series

Kd [1]: 0.348 nM | Kd [2]: 0.39 nM
B38: APE15299 (antibody, V domains shown)
VH: B1 VH with T28S, R31K, Y32H, E35Q, F70M, A72R, F95Y
VL: B1 VL with S92E
notes: M6-p1625 series
